Here are results for one molecule from US20240301071A1 (Alector, published 2024).

In assay [1] the target is human SIRPA on human macrophages (primary monocyte-derived macrophages; U937 line) (human, UniProt P78324 31-504). In words: cell-based or functional assay.
The target of assay [2] is T1, soluble human FcgR2A H131 (human, UniProt P12318 36-218).
T1 construct: also called CD32A-H131
T1 sequence (looked up): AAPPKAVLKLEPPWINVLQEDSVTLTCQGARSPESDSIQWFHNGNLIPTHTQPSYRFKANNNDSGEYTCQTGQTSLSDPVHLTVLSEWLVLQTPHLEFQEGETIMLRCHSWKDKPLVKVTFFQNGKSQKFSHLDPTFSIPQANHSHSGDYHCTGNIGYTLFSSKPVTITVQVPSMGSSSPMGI
Briefly: BLI (Octet RED96), antibody captured by anti-human Fab-CH1, soluble human FcR. As for the experimental part:
(§1) FcR affinity measurements for anti-SIRPA antibody Fc variants were obtained using bio-layer interferometry (BLI) on a Pall ForteBio Octet RED96 instrument. […] Single cycle kinetics were performed with 100 nM of soluble human FcRs flowed over captured antibody to record traces (300 s association time, 300 s dissociation time). Data analysis was performed using ForteBio Data Analysis Software, version 9.0. Standard kinetic buffer (PBS, 0.1% BSA, 0.02% Tween-20, pH 7.2) was used for the assay and for preparing reagents.

The target of assay [3] is T2, soluble human FcgR2A R131 (human, UniProt P12318 36-218).
T2 construct: also called CD32A-R131
T2 sequence (looked up): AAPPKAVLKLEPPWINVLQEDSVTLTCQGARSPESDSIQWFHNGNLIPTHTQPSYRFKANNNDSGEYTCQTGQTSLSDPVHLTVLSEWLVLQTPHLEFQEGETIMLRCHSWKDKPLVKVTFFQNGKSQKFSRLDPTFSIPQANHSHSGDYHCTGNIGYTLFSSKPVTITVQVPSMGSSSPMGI
The assay is described as above. As for the experimental part:
as §1

Another assay addresses T3, soluble human FcgR2B (human, UniProt P31994 46-217).
T3 construct: also called CD32B
T3 sequence (looked up): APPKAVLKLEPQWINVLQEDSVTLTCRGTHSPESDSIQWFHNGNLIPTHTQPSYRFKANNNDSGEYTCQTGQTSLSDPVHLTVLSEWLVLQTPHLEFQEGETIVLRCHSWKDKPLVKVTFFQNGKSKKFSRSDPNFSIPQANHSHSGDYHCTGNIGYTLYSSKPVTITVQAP
Described as above. As for the experimental part: as §1

Assay [4] has as its target T4, soluble human FcgR3A F158 (human, UniProt P08637 17-208).
T4 construct: also called CD16A F158
The assay is described as above. As for the experimental part: as §1

Assay [5] concerns the target T5, soluble human FcgR3A V158 (human, UniProt P08637 17-208).
T5 construct: also called CD16A V158
The assay is described as above. As for the experimental part: as §1

A further assay concerns the target T6, soluble human FcgR1 (human, UniProt P12314 16-288).
T6 construct: also called FcγRI; CD64
Briefly: BLI (Octet RED96), antibody captured by anti-human Fab-CH1, 100 nM soluble human FcR. The method, then: as §1

human SIRPA on human macrophages (primary monocyte-derived macrophages; U937 line), sequence (P78324 31-370): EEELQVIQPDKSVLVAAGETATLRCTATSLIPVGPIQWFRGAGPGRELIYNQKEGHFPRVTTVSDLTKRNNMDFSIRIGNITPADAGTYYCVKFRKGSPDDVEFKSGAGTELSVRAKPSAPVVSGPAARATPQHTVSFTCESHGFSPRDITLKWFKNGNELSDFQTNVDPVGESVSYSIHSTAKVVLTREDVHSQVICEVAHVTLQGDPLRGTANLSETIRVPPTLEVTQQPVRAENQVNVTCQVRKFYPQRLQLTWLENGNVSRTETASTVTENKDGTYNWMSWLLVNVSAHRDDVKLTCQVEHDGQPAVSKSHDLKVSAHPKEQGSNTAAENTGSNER
T4 sequence (P08637 17-208 limits assumed): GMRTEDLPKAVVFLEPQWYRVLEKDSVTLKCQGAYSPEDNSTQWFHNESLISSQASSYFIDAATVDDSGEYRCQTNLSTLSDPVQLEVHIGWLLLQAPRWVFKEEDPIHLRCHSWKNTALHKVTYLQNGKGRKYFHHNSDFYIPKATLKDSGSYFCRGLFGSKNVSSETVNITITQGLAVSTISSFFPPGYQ
T5 sequence (P08637 17-208 F176V limits assumed): as the sequence (P08637 17-208 limits assumed) above, with F160V counted along it
T6 sequence (P12314 16-288 limits assumed): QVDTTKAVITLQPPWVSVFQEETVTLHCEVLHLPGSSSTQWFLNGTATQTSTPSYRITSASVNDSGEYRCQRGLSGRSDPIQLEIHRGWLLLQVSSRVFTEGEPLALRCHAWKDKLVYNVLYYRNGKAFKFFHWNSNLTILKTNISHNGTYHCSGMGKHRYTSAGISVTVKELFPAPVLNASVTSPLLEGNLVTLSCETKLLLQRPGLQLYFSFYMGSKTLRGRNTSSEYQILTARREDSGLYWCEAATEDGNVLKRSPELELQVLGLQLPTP

B1: 3F9-22 hIgG1 LALAPS (antibody)
heavy: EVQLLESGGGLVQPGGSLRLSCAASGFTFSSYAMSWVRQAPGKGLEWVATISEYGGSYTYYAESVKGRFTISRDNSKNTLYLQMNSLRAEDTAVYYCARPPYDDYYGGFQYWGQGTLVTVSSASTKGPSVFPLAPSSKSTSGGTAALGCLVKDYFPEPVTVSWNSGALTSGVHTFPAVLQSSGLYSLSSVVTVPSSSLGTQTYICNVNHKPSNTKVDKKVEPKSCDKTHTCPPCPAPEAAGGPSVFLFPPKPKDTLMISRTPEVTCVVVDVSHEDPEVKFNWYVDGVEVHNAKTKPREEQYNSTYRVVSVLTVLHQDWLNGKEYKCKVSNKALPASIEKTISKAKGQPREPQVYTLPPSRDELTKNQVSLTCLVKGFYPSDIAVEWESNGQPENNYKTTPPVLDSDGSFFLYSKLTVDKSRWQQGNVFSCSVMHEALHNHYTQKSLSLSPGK
light: DIQLTQSPSSLSASVGDRVTITCRASKSVSSGGYSYMHWYQQKPGKAPKLLIYLASNLESGVPSRFSGSGSGTDFTLTISSVQPEDFATYYCQHNRELPVTFGQGTKLEIKRTVAAPSVFIFPPSDEQLKSGTASVVCLLNNFYPREAKVQWKVDNALQSGNSQESVTEQDSKDSTYSLSSTLTLSKADYEKHKVYACEVTHQGLSSPVTKSFNRGEC
notes: also called 3F9-22 LALAPS
Consider B1, for which the “IC50 (nM), SIRPA downregulation on human monocyte-derived macrophages” value in assay [1] stood at 0.0447 nM. Besides, in assay [1], the “Max % DR, SIRPA, human monocyte-derived macrophages” value stood at 41.6%. The binding result is “no binding (tested: 100 nM)” in assay [2]; “no binding (tested: 100 nM)” in assay [3]; “no binding (tested: 100 nM)” with soluble human FcgR2B; “no binding (tested: 100 nM)” in assay [4]; “no binding (tested: 100 nM)” in assay [5]; “binds” in the assay with soluble human FcgR1.
